Measurements taken from publication PMC8167299, “Cardio- and reno-protective effects of dipeptidyl peptidase III in diabetic mice” (The Journal of Biological Chemistry, 2021).
Where no end group is shown, it is not given here.

How the values were obtained:
RhoA = assay: Pull-down assay for GTP-bound active RhoA in HUVECs; format: cell-based, human; conditions: presence of PKC inhibitor vs DMSO
Method: These experiments were performed as described previously with some modifications ([70]). Briefly, total cell lysates were obtained using the RIPA lysis buffer (50 mmol/l Tris-HCl [pH 7.5], 150 mmol/l NaCl, 0.5% deoxycholate sodium, 0.1% SDS, 1% Nonidet P-40, and 100 mM PMSF). The samples were separated by SDS-PAGE and blotted on a polyvinylidene difluoride membrane. The membrane was sequentially incubated with primary Ab and horseradish peroxidase (HRP)-labeled secondary Ab, followed by treatment with HRP substrate (Luminata Forte, Millipore Corp). The target protein band was observed using the luminescent image analyzer LAS-4000 (Fujifilm Life Science). The pull-down assay was performed as described previously with some modifications ([71]). Briefly, the cell lysates were incubated with glutathione S-transferase-fused mDia Rho-binding domain and glutathione-sepharose beads (GE Healthcare) at 2 °C to collect active GTP-bound RhoA.

[1] = system: U937 macrophage-like cells on a monolayer of HUVECs; assay: Transmigration assay of U937 cells across a HUVEC monolayer (Transwell); format: cell-based, human; conditions: presence of PKC inhibitor vs DMSO
Method: The upper inserts (5.0 μm pore size) of Chemotaxicells (Kurabo Industries, Ltd) were coated with 100 μg fibronectin (Sigma-Aldrich). HUVECs were seeded on the insert and cultured for 48 h to form an endothelial monolayer. […] The number of U937 cells that migrated into the lower wells was counted using the Counting chamber (ERMA Inc).

db/m mice = assay: Peptide 2 or control peptide administration for 8 weeks in nondiabetic db/m mice; format: in vivo, mouse; conditions: for Heart rate during echocardiography: db/m mice, isoflurane anesthesia, average ± SD, n= 7
db/db mice [2] = conditions: mouse, in vivo, iv
Method: We examined the in vivo cytotoxicity of Peptide 2 by intravenous injection of this peptide (0.5 μg/g body weight) into mice.
Following euthanasia of the mice by cervical dislocation, they were perfused with PBS, and the heart and kidney were extracted. The extracted organs were snap-frozen in liquid nitrogen within a block of water-soluble medium (Surgipath FSC 22, Leica Biosystems) or fixed with 4% paraformaldehyde and subsequently embedded in paraffin blocks. Regarding the frozen samples, they were sectioned in 10 μm thick using a cryostat (Leica Biosystems), fixed with 4% paraformaldehyde on top of poly-L-lysine-coated slides, permeabilized with 0.1% Triton X-100, and blocked with 1% bovine serum albumin (BSA). Primary antibodies (Abs) (see below) were applied in the BSA blocking solution at 4 °C overnight, followed by 1 h incubation at room temperature with fluorescent dye-labeled secondary Abs. Paraffin sections, 4 μm thick, were stained with H-E, WGA (1:500 dilution) (Thermo Fisher Scientific) or Sirius red (1:1000 dilution) (Fujifilm Wako Pure Chemical Corporation) using standard techniques. Confocal images were taken using a Leica SP8 microscope (Leica Microsystems). […] As described previously ([68]), at least three random fields were selected from the four sections in each heart to quantify the extent of fibrotic or immunopositive area using ImageJ software.

C3a receptor (C3aR) = target: T1, C3a receptor (C3aR) (Homo sapiens, UniProt Q16581); assay: Cell surface attachment of FITC-Peptide 2 on HUVECs through C3aR; format: binding; conditions: C3aR-knockdown (siC3aR #2) vs scramble RNA-transfected HUVECs; 2 h at 4 °C
T1 construct: host or cells: HUVECs
T1 sequence (Q16581 1-482): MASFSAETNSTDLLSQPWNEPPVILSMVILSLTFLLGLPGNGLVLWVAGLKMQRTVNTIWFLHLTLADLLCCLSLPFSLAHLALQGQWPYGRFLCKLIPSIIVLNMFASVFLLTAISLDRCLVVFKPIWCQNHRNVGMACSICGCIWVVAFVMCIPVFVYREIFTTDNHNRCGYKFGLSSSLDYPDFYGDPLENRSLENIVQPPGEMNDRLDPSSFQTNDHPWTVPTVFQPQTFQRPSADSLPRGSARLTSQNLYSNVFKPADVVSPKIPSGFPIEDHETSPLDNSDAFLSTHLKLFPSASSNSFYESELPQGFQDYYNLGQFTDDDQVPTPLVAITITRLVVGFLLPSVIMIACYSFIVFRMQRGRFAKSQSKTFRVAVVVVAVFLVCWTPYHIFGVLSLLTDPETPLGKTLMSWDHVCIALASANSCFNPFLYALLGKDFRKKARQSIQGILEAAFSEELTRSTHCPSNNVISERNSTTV
Method: The expression level of C3a receptor 1 (C3aR) was evaluated by semiquantitative PCR. mRNA was extracted using TRIzol RNA isolation reagent (Thermo Fisher Scientific), and cDNA was synthesized using ReverTra Ace (Toyobo). PCR was performed using rTaq DNA polymerase (TaKaRa Bio Inc). The band densities of PCR products were quantified using the ImageJ software. The mRNA expression level of C3aR was adjusted to that of β-actin as an internal control. Primer sequences for the experiments were as follows: C3aR forward 5′-[…]-3′ and reverse 5′-[…]-3′; β-actin forward 5′-[…]-3′ and reverse 5′-[…]-3′. To silence C3aR expression in HUVECs, siRNA against C3aR (#1: 5′-[…]-3′, #2: 5′-[…]-3′) was transfected into the cells with RNAiMAX (Thermo Fisher Scientific), and the cells were cultured for 2 days.
FITC-conjugated Peptide 2 was generated by Biologica Co. HUVECs, in which C3aR was or was not knocked down, were incubated with the indicated concentrations of FITC-Peptide 2 for 2 h at 4 °C. Subsequently, the cells were washed with PBS three times and labeled with tetramethylrhodamine-WGA (Thermo Fisher Scientific). Following fixation with 4% paraformaldehyde, the attached peptides on the cell surface were observed using a Leica SP8 microscope (Leica Microsystems).

SGLT2 = conditions: cited from earlier work
From the text: DM patients have a high mortality rate, mainly due to DM-related heart and/or kidney failure ([35], [43]). Pathologically, heart dysfunction exacerbates kidney damage, while renal injury negatively affects cardiac function. […] To reduce diabetic complications in tissues and organs, particularly in the heart and kidney, great effort has been made to develop effective medicines and therapeutics for DM. Among these, much attention ...

db/db mice [3] = system: db/db mice
[4] = system: AngII-stimulated hypertensive mice; conditions: AngII-stimulated hypertensive vs normotensive mice; cited from earlier work
[5] = nondiabetic db/m mice, 8-week administration
[6] = DPPIII 10 μg/g iv, after 8 weeks
[7] = DPPIII 10 μg/g iv, after 8 weeks, vs PBS

Molecule: Cn1c2ccccc2c2c3c(c4c5ccccc5n(CCC#N)c4c21)CNC3=O [PKC inhibitor, Gö6976]
- Effect on Peptide-2-induced RhoA activation (RhoA): inhibited in the presence of PKC inhibitor
- Effect on Peptide-2-induced U937 transendothelial migration [1]: inhibited in the presence of PKC inhibitor

Molecule: IAFSQYLQK [control peptide, reference compound]
- Heart rate during echocardiography (db/m mice; week 0): 410 ± 30
- Heart rate during echocardiography (db/m mice; week 4): 423 ± 32
- Heart rate during echocardiography (db/m mice; week 8): 407 ± 30

Molecule: RLLWENGNL [Peptide 2]
- Desmin deposition and microvasculature disruption in the glomeruli (db/db mice [2]): highly enhanced
- Heart rate during echocardiography (db/m mice; week 0): 417 ± 32
- Heart rate during echocardiography (db/m mice; week 4): 402 ± 41
- Heart rate during echocardiography (db/m mice; week 8): 414 ± 42
- Body weight, blood glucose level, or hemodynamics (db/m mice; [5]): did not affect
- Deteriorative effects on the organs (heart and kidney) (db/m mice; [5]): not observed in db/m mice

Molecule: FITC-Peptide 2: fluorescein isothiocyanate (FITC)-conjugated Peptide 2 (RLLWENGNL; also: FITC-conjugated, position not given here)
- FITC-Peptide 2 attachment on the cells (fluorescence microscopy) (C3a receptor (C3aR)): significantly reduced in C3aR-knockdown HUVECs

Molecule: Cc1ccc([C@@H]2O[C@H](CO)[C@@H](O)[C@H](O)[C@H]2O)cc1Cc1ccc(-c2ccc(F)cc2)s1 [canagliflozin]
- Heart failure and DKD in DM patients (SGLT2): improves heart failure and DKD

B1: dipeptidyl peptidase III (protein, UniProt Q9NY33 2-737, looked up)
Dipeptidyl peptidase 3: ADTQYILPNDIGVSSLDCREAFRLLSPTERLYAYHLSRAAWYGGLAVLLQTSPEAPYIYALLSRLFRAQDPDQLRQHALAEGLTEEEYQAFLVYAAGVYSNMGNYKSFGDTKFVPNLPKEKLERVILGSEAAQQHPEEVRGLWQTCGELMFSLEPRLRHLGLGKEGITTYFSGNCTMEDAKLAQDFLDSQNLSAYNTRLFKEVDGEGKPYYEVRLASVLGSEPSLDSEVTSKLKSYEFRGSPFQVTRGDYAPILQKVVEQLEKAKAYAANSHQGQMLAQYIESFTQGSIEAHKRGSRFWIQDKGPIVESYIGFIESYRDPFGSRGEFEGFVAVVNKAMSAKFERLVASAEQLLKELPWPPTFEKDKFLTPDFTSLDVLTFAGSGIPAGINIPNYDDLRQTEGFKNVSLGNVLAVAYATQREKLTFLEEDDKDLYILWKGPSFDVQVGLHELLGHGSGKLFVQDEKGAFNFDQETVINPETGEQIQSWYRSGETWDSKFSTIASSYEECRAESVGLYLCLHPQVLEIFGFEGADAEDVIYVNWLNMVRAGLLALEFYTPEAFNWRQAHMQARFVILRVLLEAGEGLVTITPTTGSDGRPDARVRLDRSKIRSVGKPALERFLRRLQVLKSTGDVAGGRALYEGYATVTDAPPECFLTLRDTVLLRKESRKLIVQPNTRLEGSDVQLLEYEASAAGLIRSFSERFPEDGPELEEILTQLATADARFWKGPSEAPSGQA
notes: aminopeptidase that cleaves specific dipeptides from the N terminus of relatively small peptides
- Body weight and blood glucose level (increase during the experimental period) (db/db mice [3]; DPPIII 10 μg/g body weight iv three times weekly for 8 weeks, vs PBS): unaffected by DPPIII treatment
- Left ventricular dimensions and systolic functions (echocardiography) (db/db mice [3]; DPPIII 10 μg/g iv, 8 weeks): not significantly changed
- Urine albumin excretion (albuminuria) (db/db mice [3]; DPPIII 10 μg/g iv, 8 weeks, 24 h urine, SDS-PAGE, Coomassie staining): the increase was blocked by DPPIII treatment
- Cardiac diastolic functions (pulse-wave and tissue Doppler echocardiography) (db/db mice [3]; DPPIII 10 μg/g iv, 8 weeks, vs PBS): improved the impaired diastolic functions
- Desmin deposition in the glomeruli (db/db mice [3]; [6]): almost totally reversed by DPPIII treatment
- Disruption of glomerular microvasculature (CD31 staining) (db/db mice [3]; [6]): recovered
- Morphology and size of cardiomyocytes (H-E and WGA staining) (db/db mice [3]; [6]): unchanged by DPPIII treatment
- Plasma cholesterol or triglyceride levels (db/db mice [3]; [6]): no effects
- Podocyte foot process damage (electron microscopy) (db/db mice [3]; [6]): ameliorated by DPPIII treatment
- Cardiac fibrosis (Sirius red staining) (db/db mice [3]; [7]): reduced by DPPIII treatment
- Infiltration of CD68-positive inflammatory cells in the heart (db/db mice [3]; [7]): reversed
- Plasma concentration of Peptide 2 (SRM) (db/db mice [3]; after 8-week DPPIII administration, vs PBS-infused db/db mice): clearly reduced
- Blood-pressure-lowering effect [4]: BP-lowering effects were observed specifically in AngII-stimulated hypertensive mice, but not in normotensive mice
